# Laboratory results as given in article PMC9889267.
# Target: MLucV (pTriEx-mTFP1(cp175)-Luciferase-Venus(cp173)), purified reporter protein (firefly) [luciferase: P08659]
# Experiment: SEC-RALS; UMLucV (urea pre-aggregated MLucV), 1 µM, 300 µl on Superdex-200 increase; similar size profile up to 2,000 nM; oligomer of misfolded protomers
substance,measurement,value
"MLucV (pTriEx-mTFP1(cp175)-Luciferase-Venus(cp173)), purified reporter protein (from UniProt P08659 1-544)",stoichiometry N,12
